Reference: patent US20160046944, “APTAMER TO IL-17 AND USE THEREOF” (THE UNIVERSITY OF TOKYO, published 2016)

Biological target: T1, IL-17 (IL-17A) (Homo sapiens, UniProt Q16552 Q16552:24-155)
T1 sequence: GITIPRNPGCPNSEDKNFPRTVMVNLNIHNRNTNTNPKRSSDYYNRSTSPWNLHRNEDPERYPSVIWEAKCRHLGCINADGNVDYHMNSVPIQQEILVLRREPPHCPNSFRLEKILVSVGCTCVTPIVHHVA
Assay: cell_activity; IL-6 release (ELISA), NIH3T3
Conditions: chain copies: 2
Description: First, human IL-17 and the aptamer produced in Example 1-2 were pre-incubated at 37° C. for 30 min, and added to NIH3T3 cell (ATCC, CRL1658) together with mouse TNFα (2 ng/mL). Then, after incubation for 24 hr, the culture supernatant was collected, and the production amount of IL-6 was measured by ELISA method described below. The IL-17 inhibitory action of each aptamer was determined from the production amount of IL-6. For comparison with the aptamer of the present invention, a conventionally-known aptamer (aptamer No. 50) against IL-17 was used.
ELISA method for verifying IL-17 inhibitory action of aptamer: A microtiter plate for ELISA was coated with rat anti-mouse IL-6 antibody (BD Biosciences, 2 μg/mL; 100 μL/well) diluted with PBS, and incubated at 4° C. overnight. The next day, the microtiter plate was washed 3 times with PBS/0.05% Tween 20, and applied blocking with PBS/1% BSA (200 μL/well) at room temperature for 2 hr. Then, the plate was washed 3 times with PBS/0.05% Tween 20. Recombinant mouse IL-6 (BD Biosciences; 100 μL/well) serially diluted with PBS/1% BSA/0.05% Tween 20 or culture supernatants (100 μL/well) were added to the plate. […] After 15 min, aqueous sodium hydroxide solution (2N: 50 μL/well) was added to stop the reaction, and the plate was read on a microtiter reader (Bio-Rad) by using a 405 nm filter.

B1: aptamer No. 52 (mixed)
mixed: GGGUAGCCGGAGGAGTCAGTAAUCGGUACCC
modifications: g(M)g(M)g(M)u(M)Ag(S)c(M)c(M)Gg(M)a(F)gg(M)a(M)g(S)Tc(F)a(F)gTa(M)a(M)u(M)c(M)g(M)g(M)u(F)a(M)CCC
IC50: 1.11 nM
